Positions count from the first letter of the chain named.
T1: GnRH Bio-peptide 1 (not fully specified)
T1 chain: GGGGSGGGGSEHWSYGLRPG

T2: GnRH Bio-peptide 2 (not fully specified)
T2 chain: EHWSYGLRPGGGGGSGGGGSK

B1: Clone 1 (pGnRH-001) (antibody, V domains shown)
VH: QVQLVESGGGLVQAGGSVRLSCTASGRTFNNYVLGWFRQTPGKEREFVAAIRGTGSTTHADSVKGRFTISRDNAKNTVYLQMNSLKPEDTAVYYCAADDAYYPGNLRPQYWGQGTQVTVSS
B2: Clone 1 Ala scanning 10 (antibody, V domains shown)
VH: B1 VH with P108A
B3: Clone 1 Ala scanning 1 (antibody, V domains shown)
VH: B1 VH with D98A
B4: Clone 1 Ala scanning 2 (antibody, V domains shown)
VH: B1 VH with D99A
B5: Clone 1 Ala scanning 5 (antibody, V domains shown)
VH: B1 VH with P103A
B6: Clone 1 Ala scanning 3 (antibody, V domains shown)
VH: B1 VH with Y101A
B7: Clone 1 Ala scanning 7 (antibody, V domains shown)
VH: B1 VH with N105A
B8: Clone 1 Ala scanning 11 (antibody, V domains shown)
VH: B1 VH with Q109A
B9: Clone 1 Ala scanning 8 (antibody, V domains shown)
VH: B1 VH with L106A
B10: Clone 1 Ala scanning 9 (antibody, V domains shown)
VH: B1 VH with R107A
B11: Clone 1 Ala scanning 6 (antibody, V domains shown)
VH: B1 VH with G104A
B12: Clone 1 Ala scanning 4 (antibody, V domains shown)
VH: B1 VH with Y102A
B13: Clone 9 (pGnRH-009) (antibody, V domains shown)
VH: EVQLVESGGGLVQSGGSLGLSCAASGRTFSGYAMGWFRQAPGKEREFVAAIRWSGGSTSYADSVKGRFTISRDNAKNTVYLQMNSLKPEDTAVYYCAADRGPSGSYYYPDYWGQGTQVTVSS
B14: 09Tm1 (antibody, V domains shown)
VH: B13 VH with E1D, S14P, G19R
B15: 09Tm2 (antibody, V domains shown)
VH: B13 VH with E1D, S14P, G19R, W53F
B16: Clone 9 Ala scanning 11 (antibody, V domains shown)
VH: B13 VH with P109A
B17: Clone 9 Ala scanning 5 (antibody, V domains shown)
VH: B13 VH with S103A
B18: Clone 9 Ala scanning 3 (antibody, V domains shown)
VH: B13 VH with G101A
B19: Clone 9 Ala scanning 8 (antibody, V domains shown)
VH: B13 VH with Y106A
B20: Clone 9 Ala scanning 7 (antibody, V domains shown)
VH: B13 VH with S105A
B21: Clone 9 Ala scanning 9 (antibody, V domains shown)
VH: B13 VH with Y107A
B22: Clone 9 Ala scanning 10 (antibody, V domains shown)
VH: B13 VH with Y108A
B23: Clone 9 Ala scanning 4 (antibody, V domains shown)
VH: B13 VH with P102A
B24: Clone 9 Ala scanning 12 (antibody, V domains shown)
VH: B13 VH with D110A
B25: Clone 9 Ala scanning 2 (antibody, V domains shown)
VH: B13 VH with R100A
B26: Clone 9 Ala scanning 6 (antibody, V domains shown)
VH: B13 VH with G104A
B27: 01Tm3 (antibody, V domains shown)
VH: B1 VH with Q1D, A14P, V18L, T23A, N31A
B28: 01Tm4 (antibody, V domains shown)
VH: B1 VH with Q1D, A14P, V18L, T23A, N30S
B29: 01Tm1 (antibody, V domains shown)
VH: B1 VH with Q1D, A14P, V18L, T23A
B30: 01Tm2 (antibody, V domains shown)
VH: B1 VH with Q1D, A14P, V18L, T23A, N30Q
B31: Clone 19 (pGnRH-019) (antibody, V domains shown)
VH: B1 VH with V18L, G53W, T57N
B32: Clone 1 Variant 2 (antibody, V domains shown)
VH: B1 VH with D99R, Q109H
B33: Clone 1 Variant 1 (antibody, V domains shown)
VH: B1 VH with Q109H
B34: Clone 1 Variant 3 (antibody, V domains shown)
VH: B1 VH with P103S, Q109H
B35: Clone 1 Variant 4 (antibody, V domains shown)
VH: B1 VH with D99E, A100T, Q109H
B36: Clone 1 Variant 5 (antibody, V domains shown)
VH: B1 VH with D99R, A100T, N105A
B37: Clone 9 Ala scanning 1 (antibody, V domains shown)
VH: B13 VH with D99A

Target: T1, GnRH Bio-peptide 1
Experiment: ELISA
Binder B1 has an EC50 of 4 nM. With B2 the EC50 was 65.7 nM. Work on B3 yielded an EC50 of 509 nM. B4 gave an EC50 of 19.8 nM. For B5, the EC50 was 16.9 nM. B6 gave an EC50 of over 1000 nM. For B7, the EC50 was 4.3 nM. B8 gave an EC50 of 11.9 nM. For B9, the EC50 was 4 nM. For B10, the EC50 was 4.2 nM. For B11, the EC50 was 26.2 nM. In the case of B12, the EC50 is reported as 152 nM.

Target: T1, GnRH Bio-peptide 1
Experiment: ELISA
Remark: another data set of the same source
Work on B13 yielded an EC50 of 8.16 nM. Work on B14 yielded an EC50 of 0.99 nM. In the case of B15, the EC50 is reported as 1.37 nM.

Target: T1, GnRH Bio-peptide 1
Experiment: ELISA
Remark: another data set of the same source
B13 was tested, and the EC50 was 14.4 nM. B16 showed an EC50 of 375 nM. In the case of B17, the EC50 is reported as 49.5 nM. In the case of B18, the EC50 is reported as 307 nM. For B19, the EC50 was 554 nM. Work on B20 yielded an EC50 of 15.6 nM. B21 gave an EC50 of 56.4 nM. With B22 the EC50 was 61.2 nM. Binder B23 has an EC50 of 51.3 nM. Binder B24 has an EC50 of 365 nM. B25 showed an EC50 of 29.9 nM. B26 gave an EC50 of 524 nM.

Target: T1, GnRH Bio-peptide 1
Experiment: ELISA
Remark: another data set of the same source
B1 showed an EC50 of 0.41 nM. For B27, the EC50 was 0.4 nM. B28 was tested, and the EC50 was 0.32 nM. Binder B29 has an EC50 of 0.34 nM. In the case of B30, the EC50 is reported as 0.32 nM.

Target: T2, GnRH Bio-peptide 2
Experiment: SPR
B1 gave a Kd of 7.1 nM.

Target: T1, GnRH Bio-peptide 1
Experiment: ELISA
Remark: another data set of the same source
B1 showed an EC50 of 14 nM. With B31 the EC50 was 415000 nM.

Target: T1, GnRH Bio-peptide 1
Experiment: ELISA
Remark: another data set of the same source
B1 was tested, and the EC50 was 1.27 nM. Binder B32 has an EC50 of 0.5 nM. B33 gave an EC50 of 0.39 nM. In the case of B34, the EC50 is reported as 1.19 nM. Binder B35 has an EC50 of 0.96 nM. With B36 the EC50 was 0.94 nM.

Target: T1, GnRH Bio-peptide 1
Experiment: SPR
Binder B1 has a Kd of 13.5 nM.

Target: T1, GnRH Bio-peptide 1
Experiment: ELISA
Remark: another data set of the same source
B37: no binding.

Target: T2, GnRH Bio-peptide 2
Experiment: ELISA
B13 gave an EC50 of 0.36 nM. In the case of B14, the EC50 is reported as 1.91 nM. B15 was tested, and the EC50 was 1.99 nM.

Target: T2, GnRH Bio-peptide 2
Experiment: ELISA
Remark: another data set of the same source
B1 was tested, and the EC50 was 0.3 nM. B27 gave an EC50 of 0.33 nM. With B28 the EC50 was 0.32 nM. Work on B29 yielded an EC50 of 0.33 nM. B30 gave an EC50 of 0.32 nM.

— patent US20260374857 (published 2026)
